Results on three molecules are retold here after paper PMC13506345, “Loss of cellular RNA homeostasis contributes to MDA5 activation during virus infection” (Nature Immunology, 2026).

Where two headings read alike, the source gives them in different places.

For experiment [1], the target named is T1, melanoma differentiation-associated protein 5 (MDA5) (Homo sapiens (THP1 cells, endogenous), UniProt Q9BYX4).
Experiment [2] has as its target T1, melanoma differentiation-associated …. Description: immunoprecipitation; second IP (IP2): MDA5 eluted from IP1 with urea cracking buffer (6 M urea, 1% SDS, 65 °C), neutralised with T-20 IP buffer, incubated with antibody B on Protein G Dynabeads 2 h at 4 °C; IP analysed by western blot for MDA5. The note with it: both partners purified. For orientation: A western blot detects proteins with antibodies after separation by electrophoresis.

Experiment [3] has the same target. Description: immunoprecipitation; first IP (IP1): antibody A coupled to Dynabeads, incubated with THP1 cell lysate (native MDA5) 2 h at 4 °C, high-salt washes; IP analysed by western blot for MDA5. Conditions: one partner purified.

T1 sequence (Q9BYX4 whole entry): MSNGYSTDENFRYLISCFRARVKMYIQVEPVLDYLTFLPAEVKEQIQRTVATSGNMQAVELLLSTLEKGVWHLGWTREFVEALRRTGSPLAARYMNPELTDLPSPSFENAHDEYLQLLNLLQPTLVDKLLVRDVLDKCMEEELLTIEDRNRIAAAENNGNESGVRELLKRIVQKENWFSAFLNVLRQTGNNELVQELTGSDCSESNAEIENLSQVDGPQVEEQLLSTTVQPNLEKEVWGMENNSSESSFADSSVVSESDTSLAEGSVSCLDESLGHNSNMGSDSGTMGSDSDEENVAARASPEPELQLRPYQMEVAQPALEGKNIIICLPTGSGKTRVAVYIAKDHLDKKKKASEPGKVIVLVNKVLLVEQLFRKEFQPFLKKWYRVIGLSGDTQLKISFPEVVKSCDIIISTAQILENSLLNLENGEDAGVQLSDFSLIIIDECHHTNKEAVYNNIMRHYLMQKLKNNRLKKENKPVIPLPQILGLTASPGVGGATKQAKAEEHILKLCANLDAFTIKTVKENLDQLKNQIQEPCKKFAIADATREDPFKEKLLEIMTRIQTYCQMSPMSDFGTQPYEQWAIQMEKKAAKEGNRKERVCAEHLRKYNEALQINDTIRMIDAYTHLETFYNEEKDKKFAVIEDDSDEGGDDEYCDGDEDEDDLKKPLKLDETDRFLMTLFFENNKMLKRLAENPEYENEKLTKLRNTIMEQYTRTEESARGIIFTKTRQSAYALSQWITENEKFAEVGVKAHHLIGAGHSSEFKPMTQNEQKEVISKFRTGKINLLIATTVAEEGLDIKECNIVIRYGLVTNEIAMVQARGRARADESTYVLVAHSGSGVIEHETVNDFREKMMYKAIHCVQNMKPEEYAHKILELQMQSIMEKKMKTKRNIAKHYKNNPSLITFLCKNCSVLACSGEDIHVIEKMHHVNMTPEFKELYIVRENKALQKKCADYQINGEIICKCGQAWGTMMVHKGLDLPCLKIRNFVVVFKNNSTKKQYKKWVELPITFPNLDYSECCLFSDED

B1: mAb 17 (antibody, V domains shown)
VH: QVQLQQSGAELVRPGASVTLSCKASGYTFADYEIHWVRQTPVHGLEWIGAIGPETGNTAYNQKFKGKATLTVDKSSSTVYMDLRSLTSEDSAVYYCTRGRILDWGQGTLVTVSA
VL: DVVMTQTPLSLPVSLGDQASISCRSSQSLVHSNGNTYLHWYLQKPGQSPKLLIYKVSKRFSGVPDRFSGSGSGTDFTLKISRVEAEDLGVYFCSQSTHIPYTFGGGTKLEIK
Regarding B1, the binding result in experiment [1] is “binds”.

B2: anti-MDA5 monoclonal antibody B (clone 22) (antibody, V domains shown)
VH: QVQLQQSGPELVKPGASVKMSCKASGYTFTDYVISWVKQRTGQGLEWIGEIYPGSGNTFYNEKFKGKATLTADKSSNTAYMQLSSLTSEDSAVYFCARSGDYDLDYWGQGTSVTVSS
VL: EIVLTQSPTTMAASPGEKITITCSASSSISSNYLHWYQQKPGFSPKLLIYRTSNLASGVPARFSGSGSGTSYSLTIGTMEAEDVATYYCQQGGSIPLTFGAGTKLELK
notes: Hybridoma was non-recoverable; In some radiolabeling experiments pooled ascites fluids from several hybridoma clones including antibody B were used instead; Preincubated with Protein G Dynabeads for the IP; also called Ab B; monoclonal antibody 22
Turning to B2, in experiment [2], the binding result was “binds”.

B3: anti-MDA5 monoclonal antibody A (clone 16) (antibody, V domains shown)
VH: QVQLQQSGPDLVRPGTSVKMSCKAAGYTFTNSWIGWLKQRPGHGLEWIGDIYPGGGDTNSNENFKGKATLTADTSSSTAYMQLSSLTSEDSAVYYCARSTVIMRGYFDVWGAGTMVTVSS
VL: DIQMTQSPASLSASVGETVTITCRASGNIHNFLAWYQQKQGKSPQLLVYNAKTLADGVPSRFSGSGSGTQYSLKINSLQPEDFGSYYCQHFWSTPLTFGAGTKLELK
notes: Monoclonal antibody raised against MDA5 (generated by C. Song and B. Jin); covalently coupled to Dynabeads for the IP; also called Ab A; monoclonal antibody 16; source: hybridoma cells grown in bioreactors (CELLline)
In the case of B3, the binding result in experiment [3] is on record as “binds”.
